# Measured values reported in US20240156869A1 (published 2024).
# T1: HERV-E (CT-RCC8/9 by the listing's note) peptide on HLA-A*11 (human)
# T1 peptide: ATFLGSLTWK
# B1: HERV-E-TCR (TCR, V domains shown)
# Valpha: GIQVEQSPPDLILQEGANSTLRCNFSDSVNNLQWFHQNPWGQLINLFYIPSGTKQNGRLSATTVATERYSLLYISSSQTTDSGVYFCAVRGGADGLTFGKGTHLIIQP
# Vbeta: DTEVTQTPKHLVMGMTNKKSLKCEQHMGHRAMYWYKQKAKKPPELMFVYSYEKLSINESVPSRFSPECPNSSLLNLHLHALQPEDSALYLCASSPPNEKLFFGSGTQLSVL
# Biological target: T1, HERV-E (CT-RCC8/9 by the listing's …)
# Test: cytokine release
# Method: To test whether A*11 expression conferred target recognition to these transduced cells, a co-culture experiment was performed. […] After 18 hours, the supernatant was collected and an ELSIA was performed on the supernatant for interferon-gamma (IFNγ).
# To test whether A*02 expression conferred target recognition to these transduced cells, a co-culture experiment was performed. […] After 18 hours, the supernatant was collected, and an ELISA was performed on the supernatant for Interferon-gamma (IFNγ).
binder,measurement,value
B1,binding result,recognises
